Data as given in patent US20140072563A1 (Regeneron, published 2014).

B1: H4H1819N (antibody, human IgG4, V domains shown)
VH: EVQLVESGGGVVRPGGSLRLSCAASGFTFDDYAMHWVRQAPGKGLEWVAGISWNSGSIDYADSVKGRFTISRDNAKNSLYLQMNSLRAGDTALYYCAKDILDLDYYGLDVWGQGTTVTVSS
VL: DIQMTQSPSSLSASVGDRVTITCRASQDISSYLAWYQQKPGKVPNLLIYDASSLQSGVPSRFSGSGSGTDFTLTLSSLQPEDFASYYCQNYNSAPYTFGQGTKLEIK
notes: Human IgG4 Fc (prefix H4H)
B2: H4H2092P (antibody, human IgG4, V domains shown)
VH: EVQLVESGGGVVRPGGSLRLSCAASGFTFEDYGMNWVRQVPGKGLEWVSGTNWNGGITGYTGSVKGRFTISRDNAKNSLYLQMNSLRAEDTALYHCARDSGDQDAFDIWGQGTMVTVSS
VL: DIQLTQSPSFLSASVGDRVTITCWASQDISSYLAWYQQKPGKAPKLLIYAASTFQSGVPSRFSGSGSGTEFTLTISNLQPEDFATYYCQQLDSYPLSFGGGTKVEIKR
notes: Human IgG4 Fc (prefix H4H)
B3: H4H2102P (antibody, human IgG4, V domains shown)
VH: EVQLVESGGGLVQPGGSLRLSCAASGFTFSNYDIHWVRQATGKGLEWVSAIGPAGDTYYSDSVKGRFTISREDAKNSLYLQMSSLRAGDTAVYYCASEGIAVRPDDYYGMDVWGQGTTVTVSA
VL: DIQLTQSPSFLSASVGDRVTITCWASQDITSYLAWYQKKPGKAPKLLIYAASTLQSGVPSRFSGSGSGTEFTLTISSLQPEDFAAYYCQQLNSYPLTFGGGTKVDIKR
notes: Human IgG4 Fc (prefix H4H)
B4: H4H2094P (antibody, human IgG4, V domains shown)
VH: EVQLVESGGGLVQPGGSLRLSCAASGFTFSSYDMHWVRQATGKGLEWVSAIGPAGDTYYPVSAMGRFTISRDDAKNSLYLQMNSLRAGDTAVYYCAREGVTIRPDDYFGLDVWGQGTTVTVSA
VL: DIQLTQSPSFLSASVGDRVTITCWASQGISDYLAWYQKKPGKAPQLLIYAATTLQSGVPSRFSGSGSGTEFTLTISSLQPEDFATYYCQQLNTYPLTFGGGTKVEIKR
notes: Human IgG4 Fc (prefix H4H)
B5: H4H2111P (antibody, human IgG4, V domains shown)
VH: QVQLVESGGGVVQPGRSLRLSCAASGFTFNNYGMHWVRQAPGKGLAWVAVMWYSESHKYYADSVKGRFTISRDNSKNTLYLEMNSLRVEDTAIYYCARDLGDPDAFDIWGQGTMVTVSS
VL: DIQLTQSPSFLSASVGDRVTITCWASQGISSYLAWYQQKPGKAPKLLIYGASTLQSGVPSRFSGSGSGTEFTLTISSLQPEDFATYYCQQLNSYPLTFGGGTKVEIKR
notes: Human IgG4 Fc (prefix H4H)
B6: H4H2138P (antibody, human IgG4, V domains shown)
VH: QVQLQESGPGLVKPSQTLSLTCTVSGGSINSGGYYWSWIRQHPGKGLEWIGYISYSGNTNYNPSLKSRVTISVDTSKNQFSLTLTSVTAADTAVYYCARDSDVDTGLVDGFDVWGQGTMVTVSS
VL: DIVMTQSPSSVSASVGDRVTITCRASQGVSSWLAWYQQKPGKAPKLLIYTTSSLQSGVPSRFSGSGSGTDFTLTISSLQPEDFATYYCQQSNSFPFTFGPGTKVEIK
notes: Human IgG4 Fc (prefix H4H)
B7: H4H2132P (antibody, human IgG4, V domains shown)
VH: EVQLVESGGGVVRPGGSLRLSCAASGFTFDDYGMSWVRQFPGKGLEWVSSIDGNGGNTGYSDSVKGRFTISRDNAKNSLHLQMNSLRAEDTALYHCARDPDYDSVWGNYRPFDYWGQGTLVTVSS
VL: DIVMTQSPDSLAVSLGERATINCKSSQSVLSSSNDNNYLAWFQQKPGQPPNLLIYWASTRDSGVPDRFSASGSGTDFTLAISSLQAEDVAVYYCHQYYSSPPTFGQGTKVEIKR
notes: Human IgG4 Fc (prefix H4H)
B8: H4H2098P (antibody, human IgG4, V domains shown)
VH: QVQLVESGGGVVQPGRSLRLSCAASGFTFSSFGMHWVRQAPGKGLEWVAVIWYVEINKYHADSVKGRFTISRDDSKNTVYLQMNSLRAEDTAVYYCARDWNDGDYGMDVWGQGTTVTVSS
VL: DIQLTQSPSFLSASVGDRVTITCWASQGISSFLAWYQQKAGKAPRLLIYAASTLQTGVPSRFSGSGSGTEFTLTISSLQPGDFATYHCQQLNSYPYTFGQGTKLEIKR
notes: Human IgG4 Fc (prefix H4H)
B9: H4H1821N (antibody, human IgG4, V domains shown)
VH: EVQLVESGGGLVQPGRSLRLSCAASGFTFDDYAMHWVRQAPGKGLEWVSSISWNSGSIGYADSVKGRFTISRDNAKNSLYLQMNSLKPEDTALYYCTKDTDYGDYLDAFDIWGQGTMVAVAS
VL: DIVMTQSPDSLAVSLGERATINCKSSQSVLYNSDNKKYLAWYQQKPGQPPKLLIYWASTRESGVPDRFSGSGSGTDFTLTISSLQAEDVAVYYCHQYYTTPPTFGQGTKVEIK
notes: Human IgG4 Fc (prefix H4H); In the H/D exchange experiment it was covalently attached to NHS agarose beads
B10: H4H2108P (antibody, human IgG4, V domains shown)
VH: EVQLLESGGDLVQPGGSLRLSCATSGFSFSSDAMNWVRQAPGKGLEWVSGISGSGGNTYYADSVKGRFTISRDISKSTLSLQMNSLRAEDTAVYYCAKEGTNMVRGVVMEDNGMDVWGQGTTVTVSA
VL: DIQMTQSPSSVSASVGDRVTITCRASQGISDYLAWYQQKPGKAPKLLIYAASSLQSGVPSRFSGRGSGTDFTLTISTLQPEDFATYYCQQANSFPLTFGGGTKVDIKR
notes: Human IgG4 Fc (prefix H4H)
B11: H4H2084P (antibody, human IgG4, V domains shown)
VH: QVQLVESGGGVVQSGKSLRLSCVASGFTFSNYGMHWVRQTPGKGLEWVARIWFDGTNKYYTDSVKGRFTLSRDSSKNTLYLQMNSLRAEDTAVYFCAREESLELDHYVMDVWGQGTTVTVSS
VL: AIQMTQSPSSLSASVGDRVTITCRASQDIRDDLGWFQQKPGKAPNLLIYAASSLQSGVPSRFSGSGSGTDFTLTISSLQPEDFATYYCLQDYNYPLTFGGGTKVEIKR
notes: Human IgG4 Fc (prefix H4H)
B12: H4H2114P (antibody, human IgG4, V domains shown)
VH: QVQLVESGGGVVQPGRSLRLSCAASGFTFSSYGMHWVRQAPGKGLEWVAGMSYDGSSKYYEDSVKGRFTISRDNSKNTLNLQMNSLRVEDTAVYYCAKERDYVEYVDSYYGMDVWGQGTTVTVSA
VL: AIQMTQSPSSLSASVGDRVTITCRASQGIRNDLGWYQQKPGKAPKVLIYAASSLQSGVPSRFSGSGSGTVFTLTISSLQPEDFATYYCLQDYNYPLTFGGGTKVEIKR
notes: Human IgG4 Fc (prefix H4H)
B13: H4H2290P (antibody, V domains shown)
VH: EVQLLESGGGLVQPGGSLRLSCVASGFTFSSFAMSWVRQAPGKGLEWVSVISGSGGSTNHADSVRGRFTISRDNSLNTVYLQMHSLRAEDTALYYCVKAETSSSYFYYGMDVWGQGTTVTVSS
VL: DIQLTQSPSFLSASVGDRVTITCWASQDISSYLAWYQQKPGKVPNLLIYGASSLQPGVPSRFSGSGSGTEFTLTISSLQPEDFATYYCQQLNNYPTFGGGTKLEIKR
notes: Fully human, human IgG4 Fc (H4H prefix)
B14: H4H2154P (antibody, V domains shown)
VH: QVQLQESGPGLINPSQTLSVTCTVSGGSISSGGYYWTWIRQHPGKGLEWIGYISYSGNTNYNPSLKSRVTISVDTAKNQFSLKLSSVTAADTAVYFCARDSDVDTAMVDGIDIWGQGTMVTVSS
VL: DIQMTQSPSSVSASVGDRVTITCRASQDISSWLAWYQQKPGRAPKLLIYTASSLQSGVPSRFSGSGSGTDFTLTISSLQPEDFATYFCQQANSFPFTFGPGTKVDIKR
notes: as for B13

Target: T1, ErbB3-mFc (human)
T1 construct: Dimeric soluble ErbB3; also called hErbB3.mFc
T1 chain: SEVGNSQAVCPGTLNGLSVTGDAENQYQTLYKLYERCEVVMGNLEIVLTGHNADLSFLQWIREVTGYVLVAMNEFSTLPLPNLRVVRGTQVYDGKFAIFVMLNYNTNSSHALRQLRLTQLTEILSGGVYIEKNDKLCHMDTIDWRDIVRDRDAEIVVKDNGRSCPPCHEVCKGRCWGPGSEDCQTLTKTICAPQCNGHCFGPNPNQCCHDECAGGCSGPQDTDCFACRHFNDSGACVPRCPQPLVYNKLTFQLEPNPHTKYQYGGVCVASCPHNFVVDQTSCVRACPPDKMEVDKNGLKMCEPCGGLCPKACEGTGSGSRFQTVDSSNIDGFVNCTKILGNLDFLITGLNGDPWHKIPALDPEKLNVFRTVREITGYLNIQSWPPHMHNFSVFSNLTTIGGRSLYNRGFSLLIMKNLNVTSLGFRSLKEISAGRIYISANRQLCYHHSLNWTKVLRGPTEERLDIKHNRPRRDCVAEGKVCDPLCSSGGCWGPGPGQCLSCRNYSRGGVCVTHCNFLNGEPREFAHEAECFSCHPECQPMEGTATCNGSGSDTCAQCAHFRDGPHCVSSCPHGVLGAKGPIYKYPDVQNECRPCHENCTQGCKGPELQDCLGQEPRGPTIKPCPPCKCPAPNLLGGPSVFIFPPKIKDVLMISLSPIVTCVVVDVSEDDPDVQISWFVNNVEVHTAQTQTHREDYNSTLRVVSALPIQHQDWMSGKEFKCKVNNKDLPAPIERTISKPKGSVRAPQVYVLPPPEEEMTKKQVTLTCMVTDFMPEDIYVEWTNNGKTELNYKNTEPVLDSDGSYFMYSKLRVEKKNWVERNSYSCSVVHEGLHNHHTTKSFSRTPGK
Test: blocking ELISA: antibody (0-50 nM) + 50 pM ErbB3-mFc, binding to coated neuregulin1b
Description: To further characterize anti-hErbB3 mAbs of the present invention, their ability to block ligand binding was examined via ELISA. […] Plates were washed and non-sequestered (plate bound) ErbB3 was detected with an anti-Fc poly conjugated with horseradish peroxidase (HRP). Plates were developed with TMB (3,3′,5,5′-tetramethylbenzidine) and neutralized with sulfuric acid before reading absorbance at 450 nm on a Victor X5 plate reader. Data analysis used a sigmoidal dose-response model within Prism™ software. […] Maximal blocking for each antibody was calculated by taking the difference in absorbance from zero to 50 nM antibody on the inhibition curve, divided by the difference in absorbance from 50 pM to zero ErbB3 on the dose curve.

Binder | IC50 | Maximal Blocking (%)
B1 | 0.02 nM | 99%
B2 | 0.0594 nM | 100%
B3 | 0.186 nM | 90%
B4 | 0.09 nM | 92%
B5 | 0.0497 nM | 92%
B6 | 0.106 nM | 96%
B7 | 0.0957 nM | 94%
B8 | 0.135 nM | 95%
B9 | 0.018 nM | 99%
B10 | 0.116 nM | 91%
B11 | 0.0873 nM | 95%
B12 | 0.163 nM | 91%

Target: hErbB3.mmh (soluble monomeric human ErbB3 extracellular domain with C-terminal myc-myc-hexahistidine tag) (human, UniProt P21860 20-642)
Sequence (P21860 other isoform, or with tags, fused parts or gaps): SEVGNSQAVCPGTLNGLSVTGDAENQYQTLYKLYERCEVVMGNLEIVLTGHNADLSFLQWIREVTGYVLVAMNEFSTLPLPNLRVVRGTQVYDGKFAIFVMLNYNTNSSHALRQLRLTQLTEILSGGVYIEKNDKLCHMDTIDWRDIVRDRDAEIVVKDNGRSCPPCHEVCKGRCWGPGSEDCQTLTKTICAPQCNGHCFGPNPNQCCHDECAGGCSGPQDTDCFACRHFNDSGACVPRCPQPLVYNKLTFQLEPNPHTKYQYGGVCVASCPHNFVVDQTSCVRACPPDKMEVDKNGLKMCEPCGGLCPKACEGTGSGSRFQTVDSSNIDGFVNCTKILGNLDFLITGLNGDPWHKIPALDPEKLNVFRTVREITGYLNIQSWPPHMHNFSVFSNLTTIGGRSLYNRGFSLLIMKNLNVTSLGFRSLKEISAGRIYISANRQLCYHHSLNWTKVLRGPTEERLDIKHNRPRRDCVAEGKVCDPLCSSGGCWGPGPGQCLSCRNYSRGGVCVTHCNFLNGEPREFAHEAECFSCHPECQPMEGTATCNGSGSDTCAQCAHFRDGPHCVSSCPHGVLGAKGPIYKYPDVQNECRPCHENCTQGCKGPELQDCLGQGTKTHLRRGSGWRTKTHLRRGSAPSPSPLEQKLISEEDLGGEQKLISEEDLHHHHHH
Test: SPR (Biacore), 25 C, mAb capture format
Method: (§1) (Tables 2-4). Measurements were conducted on a Biacore 2000 or T100 instrument. […] Kinetic association (kₐ) and dissociation (kd) rate constants were determined by processing and fitting the data to a 1:1 binding model using Scrubber 2.0 curve fitting software.

Binder | Kd | T½ | koff | kon
B13 | 0.115 nM | 2.65 h | 6.72e-05 s⁻¹ | 582000 M⁻¹ s⁻¹
B14 | 0.0176 nM | 4.75 h | 3.73e-05 s⁻¹ | 2.13e+06 M⁻¹ s⁻¹

Target: T2, hErbB3.mFc (soluble dimeric human ErbB3 extracellular domain fused to mouse Fc) (human)
T2 construct: called dimeric
T2 chain: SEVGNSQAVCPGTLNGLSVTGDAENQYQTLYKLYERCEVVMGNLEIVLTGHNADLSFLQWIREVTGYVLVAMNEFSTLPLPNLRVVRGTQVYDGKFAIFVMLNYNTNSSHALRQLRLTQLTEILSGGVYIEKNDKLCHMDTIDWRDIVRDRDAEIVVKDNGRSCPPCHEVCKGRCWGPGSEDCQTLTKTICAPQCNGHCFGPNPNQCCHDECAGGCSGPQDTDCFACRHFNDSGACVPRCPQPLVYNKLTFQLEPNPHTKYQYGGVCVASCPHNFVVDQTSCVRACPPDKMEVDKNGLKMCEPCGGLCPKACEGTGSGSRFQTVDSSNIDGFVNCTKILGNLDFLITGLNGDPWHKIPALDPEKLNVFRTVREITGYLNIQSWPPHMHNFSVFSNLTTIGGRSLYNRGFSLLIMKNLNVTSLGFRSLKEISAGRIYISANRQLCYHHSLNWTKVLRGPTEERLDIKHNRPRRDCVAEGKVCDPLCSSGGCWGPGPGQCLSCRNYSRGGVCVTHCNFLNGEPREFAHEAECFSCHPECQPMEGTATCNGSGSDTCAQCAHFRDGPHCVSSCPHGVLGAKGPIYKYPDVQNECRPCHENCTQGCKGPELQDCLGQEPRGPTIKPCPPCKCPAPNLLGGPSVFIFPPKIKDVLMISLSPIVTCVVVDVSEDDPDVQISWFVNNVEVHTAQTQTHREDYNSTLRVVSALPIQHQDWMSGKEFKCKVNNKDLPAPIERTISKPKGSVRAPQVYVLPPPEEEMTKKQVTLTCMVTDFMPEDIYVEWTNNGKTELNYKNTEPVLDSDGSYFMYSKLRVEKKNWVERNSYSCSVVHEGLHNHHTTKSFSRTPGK
Test: SPR (Biacore), 25 C, mAb capture format
Method: as §1

Binder | Kd | T½ | koff | kon
B13 | 0.014 nM | 15.8 h | 1.13e-05 s⁻¹ | 800000 M⁻¹ s⁻¹
B14 | 0.0003 nM | 182 h | 9.77e-07 s⁻¹ | 3.25e+06 M⁻¹ s⁻¹
